Results from patent US6423518B1, “Design and production of mutant 2,5-diketo-D-gluconic acid reductase enzymes with altered cofactor dependency” (Rutgers, the State University, priority 2000, dated 2002).
Substitutions are numbered along the chain they refer to. Names and notes keep the numbering of the source.

B1: 2,5-diketo-D-gluconic acid reductase A (Corynebacterium sp., wild type SEQ ID NO:1) variant K232M (Corynebacterium sp. ATCC 31090; K232M) (protein)
chain: MTVPSIVLNDGNSIPQLGYGVFKVPPADTQRAVEEALEVGYRHIDTAAIYGNEEGVGAAIAASGIARDDLFITTKLWNDRHDGDEPAAAIAESLAKLALDQVDLYLVHWPTPAADNYVHAWEKMIELRAAGLTRSIGVSNHLVPHLERIVAATGVVPAVNQIELHPAYQQREITDWAAAHDVKIESWGPLGQGKYDLFGAEPVTAAAAAHGKTPAQAVLRWHLQKGFVVFPMSVRRERLEENLDVFDFDLTDTEIAAIDAMDPGDGSGRVSAHPDEVD
notes: GroES fragment (N); made in house; host or cells: E. coli JM109
B2: 2,5-diketo-D-gluconic acid reductase A (Corynebacterium sp., wild type SEQ ID NO:1) variant K232Q (Corynebacterium sp. ATCC 31090; K232Q) (protein)
chain: B1 chain with M232Q
notes: as for B1
B3: 2,5-diketo-D-gluconic acid reductase A (Corynebacterium sp., wild type SEQ ID NO:1) variant K232S (Corynebacterium sp. ATCC 31090; K232S) (protein)
chain: B1 chain with M232S
notes: as for B1
B4: 2,5-diketo-D-gluconic acid reductase A (Corynebacterium sp., wild type SEQ ID NO:1) variant R235G (Corynebacterium sp. ATCC 31090; R235G) (protein)
chain: B1 chain with M232K, R235G
notes: as for B1
B5: 2,5-diketo-D-gluconic acid reductase A (Corynebacterium sp., wild type SEQ ID NO:1) variant R235T (Corynebacterium sp. ATCC 31090; R235T) (protein)
chain: B1 chain with M232K, R235T
notes: as for B1
B6: 2,5-diketo-D-gluconic acid reductase A (Corynebacterium sp., wild type SEQ ID NO:1) variant R238E (Corynebacterium sp. ATCC 31090; R238E) (protein)
chain: B1 chain with M232K, R238E
notes: as for B1
B7: 2,5-diketo-D-gluconic acid reductase A (Corynebacterium sp., wild type SEQ ID NO:1) variant R238H (Corynebacterium sp. ATCC 31090; R238H) (protein)
chain: B1 chain with M232K, R238H
notes: as for B1
B8: 2,5-diketo-D-gluconic acid reductase A, wild type, Corynebacterium sp. (ATCC Strain No. 31090; Genbank Accession No. 4699594; SEQ ID NO:1) (Corynebacterium sp. … (protein)
chain: B1 chain with M232K
notes: as for B1
B9: 2,5-diketo-D-gluconic acid reductase A (Corynebacterium sp., wild type SEQ ID NO:1) variant K232G (Corynebacterium sp. ATCC 31090; K232G) (protein)
chain: B1 chain with M232G
notes: as for B1

How the values were obtained:
[1] = substrate: O=C(O)C(=O)[C@@H](O)[C@H](O)C(=O)CO; assay: purified protein, by the assay type; format: biochemical, Corynebacterium sp.; conditions: other: Kb = Michaelis constant for 2,5-diketo-D-gluconic acid, cofactor NADH, pH 7.0, 25° C
Protocol: Cells containing plasmids for some of the mutant reductases were grown up on a 1 liter scale using a 10 ml inoculum from a saturated overnight culture. The cells were grown until absorbance of the culture at 600 nm was approximately 1.0. The cells were then induced by adding IPTG to a final concentration of 1 mM. The cells were harvested after growth at 37° C. for 4 hours. The cells were then pelleted by centrifugation and frozen for later use. At a later date, cells were thawed and lysed with the Bug Buster detergent (Novagen) containing Complete Protease Inhibitor Cocktail Tablets (Roche). […]
These reactions were performed in 96-well microtiter plates using a SpectraMax 190 plate reader (Molecular Devices). […] Initial rate data was collected in each well, and a standard curve was generated each day in order to correlate the change in absorbance of the reaction to a change in concentration of cofactors. […]

[2] = substrate: O=C(O)C(=O)[C@@H](O)[C@H](O)C(=O)CO; assay: purified protein, by the assay type; format: biochemical, Corynebacterium sp.; conditions: other: Kb = Michaelis constant for 2,5-diketo-D-gluconic acid, cofactor NADH, pH 7.0, 25° C; remark: listed apart in the source
Protocol: The activities of the purified enzymes were assayed in 96-well microtiter plates on a plate reader.
Equation (1) is: [formula]
B=2,5-diketo-D-gluconic acid concentration;
Kb=Michaelis Constant for 2,5-diketo-D-gluconic acid;
Kia=Dissociation Constant for NADH;
Et=Total enzyme concentration.
However, the parameters could not be fit in this model with any accuracy, due to the large apparent value of KM for 2,5-diketo-D-gluconic acid, and the low concentration of 2,5-diketo-D-gluconic acid that was used. The 2,5-diketo-D-gluconic acid concentrations were not large enough to saturate the enzyme, so a further mathematical simplification was required. Preliminary fitting of the model indicated both kcat and Kb to be very large in comparison to Ka and Kia Therefore, the rate equation was simplified to the following equation (2): [formula]
This equation is only valid when B<<Kb.
This equation was then used to fit the kinetic data, with much better results.
Other comparisons can also be made between the different mutants using these parameters. […]
Cells containing plasmids for some of the mutant reductases were grown up on a 1 liter scale using a 10 ml inoculum from a saturated overnight culture. The cells were grown until absorbance of the culture at 600 nm was approximately 1.0. The cells were then induced by adding IPTG to a final concentration of 1 mM. The cells were harvested after growth at 37° C. for 4 hours. The cells were then pelleted by centrifugation and frozen for later use. At a later date, cells were thawed and lysed with the Bug Buster detergent (Novagen) containing Complete Protease Inhibitor Cocktail Tablets (Roche). The pH was lowered to 5.5 with 20 mM sodium acetate (NaOAc) and NaCl was added to a final concentration of 0.15 M. After 10 minutes with the detergent, the cell debris was removed by centrifugation, and the supernatant was loaded onto disposable chromatography columns containing a 10 ml bed volume of DEAE Cellulose (Sigma) for a batch weak ion exchange step. The resin was washed with 0.15 M NaCl, still in the presence of NaOAc, pH 5.5. The bound proteins were then eluted by two washes with 0.5 M NaCl. The eluted material was then diluted back to 0.15 M NaCl by the addition of more 20 mM NaOAc buffer. This was then loaded onto a 4.6 mmD/100mml PEEK column (PerSeptive Biosystems) containing 50 μm DEAE Ceramic HyperD F resin (BioSepra) using an FPLC system. The high performance resin was washed with 0.1 M NaCl and the bound proteins were eluted using a linear salt gradient up to 0.4 M NaCl. Active fractions were pooled and the pH was raised to 7.0 using 50 mM bis-Tris. The pooled fractions were then concentrated by ultrafiltration in a stirred cell unit using a polyethersulfone membrane with a 10,000 MW cut-off (Millipore). The concentrate was loaded onto a Superdex-75 gel filtration column (Pharmacia) using 50 mM bis-Tris pH 7.0 with an FPLC system. The active fractions were again pooled. A small sample from the pooled fractions was electrophoresed on a polyacrylamide gel in the presence of SDS in order to insure homogeneity of the final product.
NADPH and NADH were prepared fresh for each use in kinetic measurements. These reactions were performed in 96-well microtiter plates using a SpectraMax 190 plate reader (Molecular Devices). Varying amounts of cofactor and substrate were added to the wells and reaction was initiated by the addition of the mutant enzyme. The final volume of each reaction was 200 μl, the reactions were buffered with 50 mM bis-Tris pH 7.0, and the temperature was held at 25° C. […] Initial rate data was collected in each well, and a standard curve was generated each day in order to correlate the change in absorbance of the reaction to a change in concentration of cofactors. All measurements were performed in triplicate (at least) and the runs were averaged for use in kinetic modeling.

Protein	kcat/Km [1] [min^−1/mm^−1]	kcat/Km [2] [min^−1/mm^−1]
B1	0.593 ± 0.023	
B2	0.634 ± 0.037	
B3		0.318 ± 0.018
B4		3.58 ± 0.023
B5		1.34 ± 0.28
B6		1.49 ± 0.24
B7		3.87 ± 0.13
B8		0.724 ± 0.026
B9		0.874 ± 0.028
